Assay results: the DeepSol protein solubility set

experiment: soluble on expression in E. coli; label from the status in PepcDB or PDB records

Soluble on expression in E. coli, soluble:
MPLITTETGKKMHVLEDGRKLITVIPGDGIGPECVEATLKVLEAAKAPLAYEVREAGASVFRRGIASGVPQETIESIRKTRVVLKGPLETPVGYGEKSANVTLRKLFETYANVRPVREFPNVPTPYAGRGIDLVVVRENVEDLYAGIEHMQTPSVAQTLKLISWKGSEKIVRFAFELARAEGRKKVHCATKSNIMKLAEGTLKRAFEQVAQEYPDIEAVHIIVDNAAHQLVKRPEQFEVIVTTNMNGDILSDLTSGLIGGLGFAPSANIGNEVAIFEAVHGSAPKYAGKNVINPTAVLLSAVMMLRYLEEFATADLIENALLYTLEEGRVLTGDVVGYDRGAKTTEYTEAIIQNLGKTPRKTQVRGYKPFRLPQVDGAIAPIVPRSRRVVGVDVFVETNLLPEALGKALEDLAAGTPFRLKMISNRGTQVYPPTGGLTDLVDHYRCRFLYTGEGEAKDPEILDLVSRVASRFRWMHLEKLQEFDGEPGFTKAQGED, MEYSDIRDRILLATLPNVPFDGWSGKALRLGAESAGFDREAADRAFPGGPAEAVGHFIDLANRMMEADLGARDLSGLKLPEKIHLAIKLRLERWAGDREAVRRGLALLSLPGHARLSLKSTYATVDGIWHAVGDRSVDFSFYTKRAELAAIYGATLLVWLEDTSEESAETWAFLDRRLEGVIRLRKARAKLRERMTHLPTLPRLLNPLDLVRKPFGLMRSMRMRLEHHHHHH, MNINLSVPYAAEGPGPTINTLGQVDGEDVVSISSADLDETEGNLNMTTVSVRSGMTLSQVISRWLFTDDTIVPIEQVFPPGQSTEEVEESNRTAFISSESSATIAAMNYLNIPVEVEVAEVLTDSAATGIFEPGDKLLSIDGTAISTPGDAQTIVRSKAPGDEITISYERNDAESQATITLREHPDDSSVALLGISMLSVPSSAIEVDYNLEDIGGPSAGMMFSLAVVDKLSPGALNGGKFVAGTGTIAEDGSVGPIGGIAHKVRAAEDAGAEVFLSPADNCAEAMSAKPQDMTILKVDSLSQAIDQMAAYNEGLEHHHHHH, MTRLPKLAVFDLDYTLWPFWVDTHVDPPFHKSSDGTVRDRRGQNIQLYPEVPEVLGRLQSLGVPVAAASRTSEIQGANQLLELFDLGKYFIQREIYPGSKVTHFERLHHKTGVPFSQMVFFDDENRNIIDVGRLGVTCIHIRDGMSLQTLTQGLETFAKAQAGL, MAHHHHHHMMPTQSEEQTKAQIPKSQAKIVNELIENKDTICAWCFDVLKYELKNEKFDKVPPLIQSLHNDGFKIPFFVKWMKLNDVKDMGSYNYDAYELNGCIGCLGETDIMELRYYALESSLNDTRFYPITLKDFPFLIVTITYLFNFEKCAHVYDWVIGKHGIKISFVANKRRYSSTFLPEVASQHNFDHQTTVKKLIRKANYRGEINDELLENIEVERYEGVSCSLTHVDYERVKRD

Soluble on expression in E. coli, not soluble:
MGSDKIHHHHHHMTVELLNEPLSRYPAFDTADPEELRQALSSVYGAKLVEGPIAADFHARSNFVQLDDIALAFGVGTGSIAVEFPEGECARLQIALSGQFTTRSGGTSTAINARQAGIISPGRNARTEYGQNYSFTLLRVSTSALERKLTTLLGCKPKASLEFEPAANNEAPQVVNLRRMLCFLANQLNCSPLPPVVLAELQEAITLLFLSAFRHNYSRQLERESHGIAPKHVRQVEEYIEANWMRPITIEKLTALTGISSRGIFKAFQRSRGYSPMAFAKRVRLQHAHNLLSDGATPTTVTAAALSCGFSNLGHFARDYRDMFGEKPSETLQRARP, GFILKRGWTVLESKYLDLLAQKYDCEEKVVTEIINLKAILNLPKGTEHFVSDLHGEYQAFQHVLRNGSGRVKEKIRDIFSGVIYDREIDELAALVYYPEDKLKLIKHDFDAKEALNEWYKETIHRMIKLVSYCSSKYTRSKLRKALPAQFAYITEELLYKTEQAGNKEQYYSEIIDQIIELGQADKLITGLAYSVQRLVVDHLHVVGDIYDRGPQPDRIMEELINYHSVDIQWGNHDVLWIGAYSGSKVCLANIIRICARYDNLDIIEDVYGINLRPLLNLAEKYYDDNPAFRPKADENRPEDEIKQITKIHQAIAMIQFKLESPIIKRRPNFNMEERLLLEKIDYDKNEITLNGKTYQLENTCFATINPEQPDQLLEEEAEVIDKLLFSVQHSEKLGRHMNFMMKKGSLYLKYNGNLLIHGCIPVDENGNMETMMIEDKPYAGRELLDVFERFLREAFAHPEETDDLATDMAWYLWTGEYSSLFGKRAMTTFERYFIKEKETHKEKKNPYYYLREDEATCRNILAEFGLNPDHGHIINGHTPVKEIEGEDPIKANGKMIVIDGGFSKAYQSTTGIAGYTLLYNSYGMQLVAHKHFNSKAEVLSTGTDVLTVKRLVDKELERKKVKETNVGEELLQEVAILESLREYRY, MGDHYGFSLTTFSPSGKLMQIEYALNAVKNGQPSVGLRAKDGVVLATENVGSVLTDDQPKVEQISKHIGCVYSGMGPDFRILVKKARKIAMEYEMMYGEEMPTIQLVTDIAAVMQEYTQSGGVRPFGASLLIAGWDKNPGRPLLFQCDPSGAYFAWKATALGKNDVNAKTFLEKRFSEALELDDGIHTALLTLRESFDVGMNENNVEVAVCNSTGFHRLTKQQVHDHLGTL, MTDRLSILVPIRVLEGESVPEGVPELLAHAHVVLLGYHVIPEQTAPGQARMQFEDRATERLDEYQEMFEDAGATVERRLVFTHNGQKTIDRMIAEHDCMAVLVPNATGPVEDVLVPVRGAIGVDRLARVVASVFGEMDADVTLYHVADEDTTDDDIQTLLGGLADRLAEFGMDPSTIETRIDRDQNPLDAIVDVSDGFDTVVMGETDPSLATFVFGMPADQVANRFLGPVFVAQRERPSADEDE, MGSDKIHHHHHHMSARLDAQIAFLKQADRLKSVERANVLLDLSRPENSAEHSWHLALWALVLSPFAAPDVDVDRAIRMLLLHDLVEIETGDHPIHEVTDWQAVERAERAAARKLFGLLPPDQAADFHTLWTEFDADETADARYAKMLDRCQPMFQVLCADTPRPDHVEVVRENLSSGRAAYLAEAFPEAHAHARALLERHPPVTGGFGDRLEFLAEADRLKTVLRASRLMDDSRFENSAEHSWHIMLYAWVLGEYAAAPVDIDRVLRMLLLHDLVEIDAGDNPIHGNVDHAAQEALEAAAAERLFGLLPPDQGAGLRAIWQEFETAQSADALFGKAVDRVQTPIANLENGGGSWVTYDVSLQQLVARVGTPVSRGAPGLWDWLFPQLSDCFTRLGLRL, MGSDKIHHHHHHMKIGIVISGGDVSGMNNFIFQIARQANADITLFNGGIPGLLEKSHQDMAWRDLVDYSITAVPIITSGRTSRKLQRSEYESIAKKLKSLRIDVLIMAGGDGSLQFLNTLSEFEINCFGVGMTIDNDVYGSDYTIGFSTACEQIIKEVSRLRNTGRALPGRVFMVEILGGYCGELTLQSAIKCNADIALIPEAQMPLAVLAERITRKLSAQNSVVILCSEGYTKEYSPGFQGAIDTMIKQLEPQIGVRIRKTIVGYGLRSGDPTCEEIYQGTIMASEVVRCIQSGMKNKAIIINSSNKPIPIDLVSMKKRLVDTEGHHYKLAKQLNII, MGSDKIHHHHHHMCPMQNYPYVITVSSEKGGVGKTTLATNLAIYLKALDENLPVTIFSFDNHFTVDRMFEIRGQRLTGSVADLLMESPPRDLIHTGQYGVGYIPSSASLNDLKGSIRGPMVLARLLAASRIPGVLIIDTRPDLDMLTQNALFAADRAIIPVKDMPSLENCRNIFALFEQRGLDRKSLSLIPCLVDERIKFDGPFNDQKTLLKAYAINRGYRCLDVYISKSPKVESLNTNPDGKIYPILTHAKWTEVHGQFAQLAQILINEYNATTEPRSLLFHKWLQTEESRKKEEFFARLSGIKSQCLLCGKPVSDDGDGRHSFYFEVSDGSAAGFFEEECFLTMLMTNIYNMDVSMVDDAPTVHLMRDSSRESAFVFRPASNGGAVEFHRFSLDGTLLIKKNYPLREYEGGLLRRERSRLYTLMTEALGTAGAGSSDRFILVHPVTRDNPQGILRDESYRGLTKLKQHIAAQIASS, MGSDKIHHHHHHMEPAGVYAKNVQIDRELSQRLHGALTCGKEELFQVVADPAPDVIRAALRNPAMDENHLLVLLGRRDLGEDLVAAIGRHDAVAESHKLKAALVRNPATPAQLVMSLLPHLYLFELVDLCLLAGVTPDQRVAAERAVIQRLSTTPLGNKITLARRATASILDALLKESDVRVVESCLTNPRLKEGSVFQLVSSSRATGDVIAAVARHQCWSNRPNLKAAMLKNPNTPTSLFSTLLASAPTMEVRNLAASGRLGTERKRLAAQELKRRGC
